# From paper PMC7069927, “Amyloid formation of bovine insulin is retarded in moderately acidic pH and by addition of short-chain alcohols” (European Biophysics Journal, 2020)
# Where two headings read alike, the source gives them in different places.
# Assays:
# bovine insulin = biological target: T1, bovine insulin (Bos taurus, UniProt P01317); test: Effect of short-chain alcohols on insulin fibrillation kinetics (ThT) at pH 4.0; conditions: ammonium acetate buffer pH 4.0, ThT, 60 °C; for retardation of insulin fibril formation (half-time) at the most effective alcohol:buffer mixing ratio: quiescent, triplicate, alcohol range 0-50% v/v; for alcohol concentration of maximal retarding effect: volume fraction
# T1 construct: 51 amino acid residues, distributed over two polypeptide chains (A and B) that are interconnected by disulphide bridges; purchased Sigma-Aldrich I5500
# Protocol: (§1) Aggregation kinetics was monitored by ThT fluorescence in a Fluostar Omega or Fluostar Optima fluorescence plate reader (BMG Labtech, Ortenberg, Germany) at 60 °C without shaking. Samples were deposited in 100 μl triplicate in black half-area 96-well microtiter plates with transparent bottoms (Corning #3881), and the plates were sealed with plastic film (Bio-Rad Laboratories, Hercules, CA, U.S.) to avoid sample evaporation. ThT fluorescence emission was detected using bottom optics, a 440 ± 10 nm band pass excitation filter, and a 485 ± 12 nm band pass emission filter. The ThT concentration was 7.2 μM in all experiments.
# To mimic conditions relevant to industrial purification of insulin, we investigated the effect of three short-chain alcohols (methanol, ethanol and isopropanol) on insulin aggregation in ammonium acetate buffer. We monitored ThT kinetics as function of increasing concentration (range: 0–50% v/v) of each alcohol (Fig. 5a–c). […] Methanol is apparently a weaker modulator (it retards fibril formation by ~ 2 times); higher concentrations (40%) are also needed to reach maximal effect.
# [1] = Thioflavin-T kinetic assay of insulin amyloid formation; type: physicochemical, bovine; conditions: 64 μM insulin, 60 °C, quiescent; for half-time of amyloid formation: ThT 7.2 μM
# Protocol: as §1
# We set up thioflavin-T kinetic assays to monitor the aggregation of bovine insulin in microtitre plates at 60 °C and under quiescent conditions, initially at pH 2.2 to establish a reproducible method, then extending to pH 7.0 to reflect native conditions. The resulting kinetic curves (presented as normalized ThT fluorescence) are presented in Fig. 1a, b; each condition was analysed in triplicate and all curves are shown. The aggregation rate of bovine insulin increases with increase in monomer concentration at pH 2.2 (Fig. 1a), which is intuitively expected and also consistent with many previous studies (see for example Brange and Langkjoer [1993]; Nielsen et al. [2001]). […] The scaling component, i.e. the slope of the fitted straight line to the half-time data, for insulin aggregation kinetics at pH 2.2 is − 1.02, which is consistent with a nucleation-dependent aggregation mechanism (Meisl et al. [2016]). […] This is, from an amyloid formation point of view, an anomalous behaviour that can be explained by that insulin, in addition to existing as a monomer, populates higher-order oligomeric states that are resilient to amyloid formation; or interfere with fibril elongation (Ziaunys et al. [2018]). These higher-order states can be significant, or even predominant, at pH 7.0 despite that no stabilizing zinc was added (Ziaunys et al. [2018]; Waugh et al. [1953]; Goldman and Carpenter, [1974]).
# [2] = centrifuged 13,400 rpm 15 min, absorption 280 nm
# Protocol: The solubility of insulin as function of pH was estimated by preparing insulin solutions with varying pH at a concentration of 1 mg/ml. The solutions were centrifuged at 13,400 rpm in an Eppendorf Minispin tabletop centrifuge (Eppendorf, Hamburg, Germany) for 15 min to pellet non-dissolved insulin. The solubility was estimated by measuring the insulin concentration in the supernatant by absorption (see above). The same strategy was used to determine fibril formation yields at different pH values, using pre-formed fibrils as starting material.
# [3] = Fibril formation yield (centrifugation to sediment amyloid fibrils); type: physicochemical, bovine
# Protocol: The fibril yields for the reactions shown in Fig. 1 were estimated by centrifugation experiments to sediment amyloid fibrils formed at a starting concentration of 58 μM insulin. […] We also used centrifugation to sediment insoluble insulin in 1 mg/ml solutions to investigate the solubility across a range of buffers with different pH values (Fig. 1d).
# [4] = AFM imaging of the end point of the fibrillation reaction; type: physicochemical, bovine; conditions: aggregated in ammonium acetate pH 4.0 in presence of 30% (vol/vol) EtOH; on mica
# Protocol: For atomic force microscopy, fibrillar insulin was deposited on freshly cleaved mica and left to settle for 5 min, after which the mica plates were rinsed with milli-Q water and dried under a gentle stream of nitrogen. AFM images were recorded on an NTEGRA Prima setup (NT-MDT, Moscow, Russian Federation) equipped with a gold-coated single crystal silicon cantilever (NSG-01, spring constant ~ 5.1 N/m, resonance frequency of ~ 150 kHz). The images were processed in the Gwyddion software package (Nečas and Klapetek [2012]) using planar subtraction, polynomial background subtraction and correction for linear aberrations. For fluorescence microscopy, 150 µl of insulin solution was placed on positively charged glass (Thermo Scientific, Waltham, MA, USA) and sealed with a 18 × 18 mm coverslip. A Zeiss AxioObserver.Z1 inverted fluorescence microscope (Carl Zeiss AG, Oberkochen, Germany) with a 100 × oil immersion objective (NA = 1.46) was used in combination with a Photometrics Evolve EMCCD camera (Photometrics, Tuscon, AZ, USA), 100 ms exposure time, to obtain the images of the samples.
# This is probably due to ThT’s fluorescence being sensitive both to ThT binding affinity and to the quantum yield of each bound dye molecule (Lindberg et al.[2015], [2017]). […]
# [5] = ref Wintersteiner and Abramson [1933]; cited from earlier work
# T1 sequence (P01317 25-54 limits assumed): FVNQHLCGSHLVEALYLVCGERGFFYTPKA
# T1 sequence (P01317 85-105 limits assumed): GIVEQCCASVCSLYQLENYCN
molecule,measurement,setting,value
CC(C)O [isopropanol],retardation of insulin fibril formation (half-time) at the most effective alcohol:buffer mixing ratio,bovine insulin,three to four
same,alcohol concentration of maximal retarding effect,bovine insulin,30–35%
Bovine insulin,half-time of amyloid formation,"[1]; ammonium acetate buffer (200 mM) pH 4.0, printed 'ammonium phosphate', triplicate",7.7 ± 0.8 h
same,half-time of amyloid formation,"[1]; citrate-phosphate buffer pH 4.0, triplicate",6.5 ± 0.1 h
same,slowing of amyloid formation kinetics as measured by half-time of fibril formation,"[1]; pH 4.0 compared with pH 3.0 or pH 7.0, citrate-phosphate buffer, ThT, triplicate",~ 50%
same,amyloid formation,"[1]; pH 5.0-6.0, citrate-phosphate buffer, ThT, no reliable half-times within assayed time range",strongly inhibited
same,insulin solubility,"[2]; across most of the assayed pH range except pH 5.0-6.0, 1 mg/ml (172 μM), pre-dissolved in 100 mM HCl",high
same,insulin solubility,"[2]; pH 4.0, 1 mg/ml",solubility remains high
same,insulin solubility,"[2]; pH 5.0-6.0, close to pI, 1 mg/ml",low solubility
same,fibril yield,"[3]; pH 2.2, starting concentration 58 μM insulin, absorption of supernatant",91 ± 8%
same,fibril yield,"[3]; pH 4.0, absorption of supernatant",> 99.5%
same,fibril yield,"[3]; pH 7.0, starting concentration 58 μM insulin, absorption of supernatant, n = 3",90 ± 5%
same,size of oligomeric particles at end point of fibrillation (AFM),[4],2–3 nm
same,isoelectric point (pI),[5],5.3
"CCO [Ethanol, ethanol]",retardation of insulin fibril formation (half-time) at the most effective alcohol:buffer mixing ratio,bovine insulin,three to four
same,alcohol concentration of maximal retarding effect,bovine insulin,30–35%
"CO [Methanol, methanol]",retardation of insulin fibril formation (half-time) at the most effective alcohol:buffer mixing ratio,bovine insulin,~ 2 times
same,alcohol concentration of maximal retarding effect,bovine insulin,40%
